Laboratory results published in patent US20230235057A1.

How the values were obtained:
[1] = molecular target: human TGFβ1 protein (Sinobiological, 10804-H08H) (human) (UniProt P01137); experiment: ELISA with reference to Example 5, reference sample
[2] = molecular target: human TGFβ1 protein (Sinobiological, 10804-H08H) (human) (UniProt P01137); experiment: ELISA with reference to Example 5, plate coated with human TGFβ1
[3] = molecular target: human TGFβ1 protein (Sinobiological, 10804-H08H) (human) (UniProt P01137); experiment: ELISA, plate coated with human TGFβ1, HRP-goat anti-human IgG detection

Chain of PD1/TGFβRII fusion protein (heavy): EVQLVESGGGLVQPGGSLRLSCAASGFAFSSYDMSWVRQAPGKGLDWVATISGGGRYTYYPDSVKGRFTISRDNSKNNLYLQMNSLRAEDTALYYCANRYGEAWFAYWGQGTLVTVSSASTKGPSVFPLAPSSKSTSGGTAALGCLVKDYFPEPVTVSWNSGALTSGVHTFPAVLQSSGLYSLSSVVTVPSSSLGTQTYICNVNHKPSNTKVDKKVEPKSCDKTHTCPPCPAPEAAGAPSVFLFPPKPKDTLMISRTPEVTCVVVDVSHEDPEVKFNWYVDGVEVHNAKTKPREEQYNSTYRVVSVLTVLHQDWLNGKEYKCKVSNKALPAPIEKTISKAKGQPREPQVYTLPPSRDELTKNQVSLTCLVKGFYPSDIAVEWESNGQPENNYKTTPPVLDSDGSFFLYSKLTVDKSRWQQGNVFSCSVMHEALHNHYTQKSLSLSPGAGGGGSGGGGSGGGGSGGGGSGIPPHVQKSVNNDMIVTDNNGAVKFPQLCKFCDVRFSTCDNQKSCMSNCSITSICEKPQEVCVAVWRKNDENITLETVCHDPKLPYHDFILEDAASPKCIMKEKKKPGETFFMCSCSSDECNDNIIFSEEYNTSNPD
Chain of PD1/TGFβRII fusion protein (light): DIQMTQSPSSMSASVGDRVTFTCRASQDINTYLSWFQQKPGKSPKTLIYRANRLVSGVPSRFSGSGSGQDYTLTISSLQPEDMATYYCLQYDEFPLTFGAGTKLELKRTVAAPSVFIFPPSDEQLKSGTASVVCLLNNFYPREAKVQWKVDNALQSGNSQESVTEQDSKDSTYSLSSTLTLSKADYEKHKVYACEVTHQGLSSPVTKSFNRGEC

Binding activity (EC50 of control / EC50 of test sample) [1]: 100%
EC50 [2]: 0.0617 µg/mL
EC50 [3]: 0.398 nM
Substance: PD1/TGFβRII fusion protein
